Results on 125 sequences are retold here after the supplement of paper PMC9112550, “Optimization of the antimicrobial peptide Bac7 by deep mutational scanning” (BMC Biology, 2022).

In the data set the test system is Escherichia coli TOP10. The data set can be described thus: shrunken log2 fold change of peptide-encoding DNA abundance (4.5 h post-induction vs induction); higher = less antimicrobial activity (less host growth inhibition). Particulars: time post-induction: 4.5 h; library: site-saturation at positions 5, 18, 19, 20.
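Note: peptides expressed intracellularly from a pBAD plasmid library in pooled LB shake-flask culture, induced with 0.3% L-arabinose, DNA abundance read by NGS, three biological replicates, DESeq2 with apeglm shrinkage.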

For RRIRLRPPRLPRPRPRPASVPRP, the “shrunken log2 fold change” value is -0.0571.

As for RRIRTRPPRLPRPRPRPLYRPRP, the “shrunken log2 fold change” value came to 0.0015.

Consider RRIRCRPPRLPRPRPRPHKMPRP, for which the “shrunken log2 fold change” value is -0.593.

As to RRIRHRPPRLPRPRPRPNDDPRP, the “shrunken log2 fold change” value is -0.259.

For the sequence RRIRLRPPRLPRPRPRPNWGPRP, the “shrunken log2 fold change” value came to 0.00356.

With RRIRNRPPRLPRPRPRPGGIPRP, the “shrunken log2 fold change” value is -0.109.

For the sequence RRIRHRPPRLPRPRPRPWWEPRP, the “shrunken log2 fold change” value was -0.015.

With RRIRPRPPRLPRPRPRPTRQPRP, the “shrunken log2 fold change” value worked out at 0.221.

As for RRIRMRPPRLPRPRPRPTGKPRP, the “shrunken log2 fold change” value stood at 0.562.

On to RRIRMRPPRLPRPRPRPAYCPRP, for which the “shrunken log2 fold change” value was found to be 0.075.

On to RRIRDRPPRLPRPRPRPVAGPRP, for which the “shrunken log2 fold change” value was 0.851.

As for RRIRKRPPRLPRPRPRPPRMPRP, the “shrunken log2 fold change” value was 0.648.

As to RRIRIRPPRLPRPRPRPFDYPRP, the “shrunken log2 fold change” value is -0.182.

RRIRQRPPRLPRPRPRPSYVPRP: the “shrunken log2 fold change” value is -1.04.

As for RRIRARPPRLPRPRPRPGWPPRP, the “shrunken log2 fold change” value was determined as 0.789.

For RRIRGRPPRLPRPRPRPQYPPRP, the “shrunken log2 fold change” value is -0.865.

Take RRIRGRPPRLPRPRPRPIESPRP: the “shrunken log2 fold change” value was 0.108.

Take RRIRERPPRLPRPRPRPIGRPRP: the “shrunken log2 fold change” value turned out to be 0.0419.

As for RRIRMRPPRLPRPRPRPYINPRP, the “shrunken log2 fold change” value was -0.574.

Take RRIRDRPPRLPRPRPRPLYDPRP: the “shrunken log2 fold change” value was -0.107.

In the case of RRIRDRPPRLPRPRPRPYVAPRP, the “shrunken log2 fold change” value was -0.0638.

As for RRIRSRPPRLPRPRPRPSFGPRP, the “shrunken log2 fold change” value is 0.176.

As for RRIRMRPPRLPRPRPRPPNTPRP, the “shrunken log2 fold change” value worked out at 0.431.

Turning to RRIRKRPPRLPRPRPRPGQFPRP, the “shrunken log2 fold change” value worked out at 0.00171.

Turning to RRIRTRPPRLPRPRPRPTVWPRP, the “shrunken log2 fold change” value is -0.049.

With RRIRRRPPRLPRPRPRPSDRPRP, the “shrunken log2 fold change” value was -0.153.

For RRIRLRPPRLPRPRPRPLEKPRP, the “shrunken log2 fold change” value is -0.0425.

In the case of RRIRQRPPRLPRPRPRPTHSPRP, the “shrunken log2 fold change” value stood at 0.415.

Turning to RRIRRRPPRLPRPRPRPGPGPRP, the “shrunken log2 fold change” value was found to be 0.598.

Regarding RRIRARPPRLPRPRPRPYWHPRP, the “shrunken log2 fold change” value was -0.241.

For RRIRSRPPRLPRPRPRPNVSPRP, the “shrunken log2 fold change” value was -0.0656.

As to RRIRFRPPRLPRPRPRPSWFPRP, the “shrunken log2 fold change” value is -0.403.

In the case of RRIRYRPPRLPRPRPRPFPTPRP, the “shrunken log2 fold change” value is -0.781.

With RRIRCRPPRLPRPRPRPFHDPRP, the “shrunken log2 fold change” value is -0.727.

As to RRIRWRPPRLPRPRPRPMCDPRP, the “shrunken log2 fold change” value is 0.116.

For the sequence RRIRFRPPRLPRPRPRPESFPRP, the “shrunken log2 fold change” value stood at 0.0272.

For RRIRRRPPRLPRPRPRPVNGPRP, the “shrunken log2 fold change” value was 0.0578.

In the case of RRIRSRPPRLPRPRPRPDFVPRP, the “shrunken log2 fold change” value was -0.106.

As to RRIRIRPPRLPRPRPRPNTRPRP, the “shrunken log2 fold change” value is -0.507.

As for RRIRDRPPRLPRPRPRPKDYPRP, the “shrunken log2 fold change” value is -0.192.

As for RRIRKRPPRLPRPRPRPFHWPRP, the “shrunken log2 fold change” value amounted to 0.111.

Consider RRIRARPPRLPRPRPRPICAPRP, for which the “shrunken log2 fold change” value came out at 0.799.

With RRIRRRPPRLPRPRPRPFRYPRP, the “shrunken log2 fold change” value worked out at 0.292.

Take RRIRRRPPRLPRPRPRPHFHPRP: the “shrunken log2 fold change” value is -0.217.

RRIRVRPPRLPRPRPRPIYFPRP: the “shrunken log2 fold change” value is -0.23.

For the sequence RRIRYRPPRLPRPRPRPAYAPRP, the “shrunken log2 fold change” value is -0.236.

In the case of RRIRMRPPRLPRPRPRPTSCPRP, the “shrunken log2 fold change” value was 0.415.

As for RRIRRRPPRLPRPRPRPRNTPRP, the “shrunken log2 fold change” value came to 0.436.

In the case of RRIRLRPPRLPRPRPRPRSYPRP, the “shrunken log2 fold change” value is -0.227.

For the sequence RRIRARPPRLPRPRPRPDFIPRP, the “shrunken log2 fold change” value is -0.0493.

As to RRIRMRPPRLPRPRPRPMQCPRP, the “shrunken log2 fold change” value was -0.0018.

On to RRIRRRPPRLPRPRPRPPSGPRP, for which the “shrunken log2 fold change” value worked out at 0.682.

As to RRIRVRPPRLPRPRPRPHAEPRP, the “shrunken log2 fold change” value turned out to be 0.0163.

As for RRIRCRPPRLPRPRPRPFIHPRP, the “shrunken log2 fold change” value was -1.43.

Regarding RRIRRRPPRLPRPRPRPFKKPRP, the “shrunken log2 fold change” value was -0.0451.

On to RRIRVRPPRLPRPRPRPQHKPRP, for which the “shrunken log2 fold change” value is -0.483.

RRIRPRPPRLPRPRPRPWILPRP: the “shrunken log2 fold change” value is -0.451.

As to RRIRERPPRLPRPRPRPQLRPRP, the “shrunken log2 fold change” value was -0.00323.

As to RRIRHRPPRLPRPRPRPPALPRP, the “shrunken log2 fold change” value was -0.00181.

For the sequence RRIRDRPPRLPRPRPRPATKPRP, the “shrunken log2 fold change” value amounted to 0.318.

For the sequence RRIRRRPPRLPRPRPRPSCMPRP, the “shrunken log2 fold change” value worked out at 0.019.

On to RRIRIRPPRLPRPRPRPFHRPRP, for which the “shrunken log2 fold change” value was -0.152.

In the case of RRIRRRPPRLPRPRPRPCTMPRP, the “shrunken log2 fold change” value is -0.451.

Take RRIRFRPPRLPRPRPRPKVKPRP: the “shrunken log2 fold change” value came to 0.0668.

For the sequence RRIRDRPPRLPRPRPRPTTGPRP, the “shrunken log2 fold change” value came out at 0.673.

RRIRYRPPRLPRPRPRPTAPPRP: the “shrunken log2 fold change” value is -0.25.

Turning to RRIRWRPPRLPRPRPRPEIYPRP, the “shrunken log2 fold change” value stood at 0.21.

Take RRIRKRPPRLPRPRPRPMCSPRP: the “shrunken log2 fold change” value was -0.0421.

RRIRKRPPRLPRPRPRPLCDPRP: the “shrunken log2 fold change” value stood at 0.376.

In the case of RRIRLRPPRLPRPRPRPNCSPRP, the “shrunken log2 fold change” value came out at 0.121.

Regarding RRIRRRPPRLPRPRPRPIPNPRP, the “shrunken log2 fold change” value is 0.349.

Consider RRIRTRPPRLPRPRPRPWINPRP, for which the “shrunken log2 fold change” value was 0.0189.

Consider RRIRKRPPRLPRPRPRPDRKPRP, for which the “shrunken log2 fold change” value was 0.413.

With RRIRGRPPRLPRPRPRPICIPRP, the “shrunken log2 fold change” value amounted to 0.176.

On to RRIRARPPRLPRPRPRPFCLPRP, for which the “shrunken log2 fold change” value came to 0.0753.

For the sequence RRIRQRPPRLPRPRPRPASQPRP, the “shrunken log2 fold change” value was determined as 0.0572.

For the sequence RRIRTRPPRLPRPRPRPAIPPRP, the “shrunken log2 fold change” value is -0.212.

On to RRIRVRPPRLPRPRPRPPHPPRP, for which the “shrunken log2 fold change” value was 0.261.

RRIRMRPPRLPRPRPRPHWLPRP: the “shrunken log2 fold change” value was -0.183.

Consider RRIRYRPPRLPRPRPRPFHAPRP, for which the “shrunken log2 fold change” value is 0.207.

Turning to RRIRFRPPRLPRPRPRPDKDPRP, the “shrunken log2 fold change” value is -0.393.

RRIRMRPPRLPRPRPRPEKNPRP: the “shrunken log2 fold change” value is 2.16.

Turning to RRIRRRPPRLPRPRPRPQPNPRP, the “shrunken log2 fold change” value was 0.355.

As for RRIRMRPPRLPRPRPRPVPKPRP, the “shrunken log2 fold change” value was 1.11.

As for RRIRFRPPRLPRPRPRPTSAPRP, the “shrunken log2 fold change” value turned out to be 0.344.

In the case of RRIRWRPPRLPRPRPRPCATPRP, the “shrunken log2 fold change” value turned out to be 0.183.

With RRIRPRPPRLPRPRPRPWRPPRP, the “shrunken log2 fold change” value is 0.12.

Take RRIRCRPPRLPRPRPRPNCFPRP: the “shrunken log2 fold change” value was -0.0988.

For RRIRWRPPRLPRPRPRPCYQPRP, the “shrunken log2 fold change” value stood at 0.0103.

In the case of RRIRRRPPRLPRPRPRPELLPRP, the “shrunken log2 fold change” value came to 0.147.

Consider RRIRSRPPRLPRPRPRPHTPPRP, for which the “shrunken log2 fold change” value was -0.318.

On to RRIRRRPPRLPRPRPRPNKWPRP, for which the “shrunken log2 fold change” value worked out at 0.0315.

With RRIRLRPPRLPRPRPRPMKHPRP, the “shrunken log2 fold change” value was -0.409.

RRIRRRPPRLPRPRPRPKKEPRP: the “shrunken log2 fold change” value was -0.0417.

On to RRIRNRPPRLPRPRPRPDFMPRP, for which the “shrunken log2 fold change” value was -0.138.

With RRIRERPPRLPRPRPRPEATPRP, the “shrunken log2 fold change” value came to 0.18.

In the case of RRIRRRPPRLPRPRPRPEDLPRP, the “shrunken log2 fold change” value is -0.00437.

Consider RRIRTRPPRLPRPRPRPYQPPRP, for which the “shrunken log2 fold change” value is -0.0681.

Turning to RRIRKRPPRLPRPRPRPTPNPRP, the “shrunken log2 fold change” value was 0.553.

Turning to RRIRIRPPRLPRPRPRPNFFPRP, the “shrunken log2 fold change” value was 0.00639.

Turning to RRIRFRPPRLPRPRPRPGKDPRP, the “shrunken log2 fold change” value is -0.105.

As for RRIRSRPPRLPRPRPRPCQGPRP, the “shrunken log2 fold change” value was -0.028.

For RRIRFRPPRLPRPRPRPFLPPRP, the “shrunken log2 fold change” value was -0.208.

In the case of RRIRCRPPRLPRPRPRPKELPRP, the “shrunken log2 fold change” value was -0.000896.

Take RRIRVRPPRLPRPRPRPVIQPRP: the “shrunken log2 fold change” value is -0.336.

Regarding RRIRYRPPRLPRPRPRPYKYPRP, the “shrunken log2 fold change” value was -0.238.

On to RRIRQRPPRLPRPRPRPMNDPRP, for which the “shrunken log2 fold change” value was -0.227.

With RRIRPRPPRLPRPRPRPINIPRP, the “shrunken log2 fold change” value is -1.15.

In the case of RRIRGRPPRLPRPRPRPWTIPRP, the “shrunken log2 fold change” value was determined as 0.00608.

RRIRHRPPRLPRPRPRPDFSPRP: the “shrunken log2 fold change” value is -0.0123.

Turning to RRIRVRPPRLPRPRPRPQYPPRP, the “shrunken log2 fold change” value is -0.101.

Consider RRIRARPPRLPRPRPRPARPPRP, for which the “shrunken log2 fold change” value stood at 0.827.

Consider RRIRQRPPRLPRPRPRPRVAPRP, for which the “shrunken log2 fold change” value was 0.337.

For the sequence RRIRKRPPRLPRPRPRPLGMPRP, the “shrunken log2 fold change” value was 0.11.

On to RRIRNRPPRLPRPRPRPSHLPRP, for which the “shrunken log2 fold change” value was -0.438.

For RRIRRRPPRLPRPRPRPPIAPRP, the “shrunken log2 fold change” value was found to be 0.385.

As to RRIRYRPPRLPRPRPRPTFDPRP, the “shrunken log2 fold change” value is -0.76.

As for RRIRLRPPRLPRPRPRPCAKPRP, the “shrunken log2 fold change” value worked out at 0.132.

With RRIRIRPPRLPRPRPRPPNTPRP, the “shrunken log2 fold change” value is -0.464.

Take RRIRLRPPRLPRPRPRPQPRPRP: the “shrunken log2 fold change” value was found to be 0.67.

Consider RRIRQRPPRLPRPRPRPHSYPRP, for which the “shrunken log2 fold change” value was 0.0443.

RRIRCRPPRLPRPRPRPTNIPRP: the “shrunken log2 fold change” value was -0.662.

Regarding RRIRERPPRLPRPRPRPNKFPRP, the “shrunken log2 fold change” value is -0.143.

With RRIRLRPPRLPRPRPRPALTPRP, the “shrunken log2 fold change” value was 0.129.

For RRIRSRPPRLPRPRPRPECSPRP, the “shrunken log2 fold change” value was determined as 0.201.
